Results reported in the RNAGym collection of RNA variant scans (doi:10.7554/elife.80360).

B1: CPEB3 Ribozyme (parent)
chain: GGGGGCCACAGCAGAAGCGUUCACGUCGCGGCCCCUGUCAGAUUCUGGUGAAUCUGCGAAUUCUGCUGU

Variants of: B1
Assay: self-cleavage, relative activity (ratio to wild type); higher = more cleavage; co-transcriptional

Row | Variant | self-cleavage
1 | U21A C34G | 0.606
2 | C22G U53A | 0.136
3 | C22G G56A | 0.241
4 | C22G G56C | 0.158
5 | C22U U62C | 0.171
6 | C22G C66U | 0.182
7 | A23C C27G | 0.228
8 | C22U A42G | 0.204
9 | U21G G56A | 0.774
10 | U21G G56C | 0.495
11 | U21G C45U | 0.593
12 | U21G C45A | 0.643
13 | U21G C45G | 0.567
14 | A23G G48A | 1
15 | C22A G50A | 0.24
16 | U21G A23G | 0.549
17 | C22U U43C | 0.295
18 | U21A G30A | 0.866
19 | C22G G50A | 0.189
20 | C22G G28A | 0.16
21 | C22U C39U | 0.179
22 | U21C C27G | 0.209
23 | C22G U64G | 0.157
24 | C22G U69G | 0.349

Row | Variant | self-cleavage
25 | C22G U69A | 0.242
26 | C22U C57U | 0.192
27 | C22U C57G | 0.144
28 | C22G A40U | 0.105
29 | C22G A40C | 0.23
30 | C22G A40G | 0.204
31 | C22U C66U | 0.33
32 | U21G G30C | 0.232
33 | U21G G30A | 0.221
34 | U21G G30U | 0.214
35 | C22A G65C | 0.147
36 | C22G C33G | 0.216
37 | U21C U43C | 0.875
38 | U21G C27A | 0.196
39 | U21G C27U | 0.112
40 | A23C G28U | 0.2
41 | C22U C24A | 0.179
42 | U21G G31C | 0.181
43 | C22A C33G | 0.168
44 | C22U A59G | 0.324
45 | U21C A52U | 0.93
46 | U21C A52G | 0.887
47 | A23C G47C | 0.961
48 | A23C G47U | 0.993

Row | Variant | self-cleavage
49 | A23C G47A | 0.924
50 | A23C A60U | 0.516
51 | C22A G56U | 0.151
52 | A23G C34G | 0.243
53 | A23G A59G | 1.01
54 | C22U U67G | 0.332
55 | C22U U67C | 0.365
56 | C22U C32G | 0.133
57 | A23G G56A | 0.953
58 | U21G U53A | 0.473
59 | A23C U64A | 0.833
60 | U21A C66U | 0.985
61 | U21G C35G | 0.225
62 | U21G C35U | 0.361
63 | C22G U46G | 0.178
64 | A23C A42U | 0.869
65 | A23C A42C | 0.92
66 | A23C U67G | 0.968
67 | U21C G68C | 0.899
68 | U21C G68U | 1
69 | U21A U61C | 0.728
70 | A23C C39U | 0.796
71 | C22A U53C | 0.239
72 | U21G A60C | 0.235

Row | Variant | self-cleavage
73 | C22A A42U | 0.181
74 | C22A U44C | 0.217
75 | C22A U44A | 0.184
76 | C22A G30A | 0.167
77 | U21G G25A | 0.284
78 | U21C U55G | 0.723
79 | U21C U55A | 0.843
80 | A23C C32U | 0.85
81 | A23G U46G | 1.01
82 | A23G U46A | 1.01
83 | U21A G48C | 1.01
84 | C22U U49A | 0.297
85 | C22U U64C | 0.279
86 | C22U U64G | 0.237
87 | C22A C24A | 0.0966
88 | U21C A59C | 0.351
89 | C22A A52C | 0.173
90 | C22A U55G | 0.162
91 | C22G C32U | 0.182
92 | C22A U36C | 0.169
93 | U21G G47U | 0.638
94 | U21G G47C | 0.818
95 | U21G G47A | 0.715
96 | U21C U69G | 0.933

Row | Variant | self-cleavage
97 | U21C U69A | 0.885
98 | U21G A52C | 0.459
99 | A23G U64G | 0.738
100 | A23G U64C | 0.777
101 | U21G C34U | 0.53
102 | U21G C34G | 0.193
103 | C22A G68A | 0.247
104 | C22A G68C | 0.27
105 | C22A G68U | 0.264
106 | C22G C27G | 0.16
107 | U21A C32U | 0.993
108 | U21A C35G | 0.198
109 | C22U A40G | 0.266
110 | C22U A40U | 0.184
111 | C22U A40C | 0.165
112 | C22U G37U | 0.181
113 | U21C A51G | 0.914
114 | U21A U55A | 0.916
115 | U21A U55G | 0.811
116 | C22G A60G | 0.265
117 | C22A U26A | 0.117
118 | U21A G65A | 0.862
119 | U21A G65U | 0.795
120 | A23G G25C | 0.169

Row | Variant | self-cleavage
121 | U21C U53G | 0.724
122 | A23C C33A | 0.746
123 | U21C U46C | 0.89
124 | U21C A23G | 0.76
125 | U21G A42G | 0.558
126 | A23C C66G | 0.81
127 | C22G C34U | 0.203
128 | U21A G31C | 0.221
129 | C22G G48C | 0.212
130 | U21G C57G | 0.235
131 | C22G C45U | 0.158
132 | A23C C54A | 0.849
133 | U21A G58U | 0.996
134 | U21A G58C | 0.938
135 | A23C G48A | 0.978
136 | A23C G48U | 0.942
137 | A23G A42C | 0.911
138 | A23G A42G | 0.867
139 | A23G A42U | 0.862
140 | U21G U64G | 0.295
141 | U21G U64C | 0.254
142 | U21G U64A | 0.304
143 | C22A G37A | 0.212
144 | U21C C45G | 0.864

Row | Variant | self-cleavage
145 | A23C U61C | 0.689
146 | U21C C35A | 0.229
147 | U21C C22U | 0.268
148 | U21C C22G | 0.0423
149 | A23G C32G | 0.337
150 | U21G G68U | 0.701
151 | U21G G68C | 0.783
152 | U21G U46C | 0.635
153 | A23C A59U | 0.67
154 | U21G C54A | 0.341
155 | C22U U61A | 0.18
156 | C22G A23C | 0.179
157 | C22G A23U | 0.24
158 | A23C U49G | 0.916
159 | C22A C45U | 0.158
160 | C22A C45A | 0.155
161 | U21G A40C | 0.222
162 | A23G G28C | 0.13
163 | A23G G28A | 0.136
164 | C22G G31A | 0.137
165 | C22G G31C | 0.0776
166 | C22A A59U | 0.198
167 | C22A A59G | 0.232
